Results on 5 molecules are retold here after patent US20240076389A1 (NATIONAL RESEARCH COUNCIL OF CANADA, published 2024).

One assay has as its target T1, rhTyro-3 (human, UniProt Q06418 41-429).
T1 construct: extracellular domain
T1 sequence (looked up): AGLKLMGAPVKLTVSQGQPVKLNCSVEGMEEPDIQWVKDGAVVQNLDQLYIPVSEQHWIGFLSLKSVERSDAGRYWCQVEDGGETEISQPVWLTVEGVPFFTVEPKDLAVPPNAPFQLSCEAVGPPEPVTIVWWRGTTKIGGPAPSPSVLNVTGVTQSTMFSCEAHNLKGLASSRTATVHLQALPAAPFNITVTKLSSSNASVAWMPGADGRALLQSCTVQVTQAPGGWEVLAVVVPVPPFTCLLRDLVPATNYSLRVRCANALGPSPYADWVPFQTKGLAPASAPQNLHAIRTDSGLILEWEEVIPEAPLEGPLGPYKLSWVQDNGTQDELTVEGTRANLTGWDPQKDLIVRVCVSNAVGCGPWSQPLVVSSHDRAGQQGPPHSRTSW
Briefly: ELISA, antigen coated at 5 µg/ml, mAb 10 µg/ml. How it is done: (§1) To evaluate the cross-reactivity of the mAb to other members of the TAM receptor tyrosine kinase subfamily, binding of the mAb to rhAXL-ECD, rhMER-ECD, rhTyro-3 and BSA (negative control) was measured by ELISA. 96-w half-area plates (Costar) were coated with 25 μl of rhAXL-ECD, rhMER-ECD, rhTyro-3 or BSA at 5 μg/ml in PBS and incubated overnight at 4° C. Microplates were washed 3 times with PBS, blocked with PBS-BSA 1%, and 25 μl of a 10 μg/ml diluted in PBS-BSA 1% were added and incubated at 37° C., 5% CO₂ for 2 hours. Plates were washed 4 times with PBS-TWEEN™ 20 0.05% and incubated for one hour at 37° C., 5% CO₂ with 25 μl of secondary antibody alkaline phosphatase conjugated F(ab)′2 goat anti-mouse IgG (H+L) (Jackson Immunoresearch) diluted 1/5000 in blocking buffer. After 4 washes with PBS-Tween 20 0.05%, 25 μl of a 1 mg/ml pN PP substrate solution was added and further incubated for one hour at 37° C. OD405 nm measurements were done using a microplate reader (Spectramax 340 PC, Molecular Devices).
(In general: An ELISA detects its analyte on a solid surface through an enzyme-linked reagent.)

The target in the next assay is T2, BSA (UniProt P02769 25-607).
T2 construct: also called BSA (negative control)
The assay can be described thus: ELISA, antigen coated at 5 µg/ml, mAb 10 µg/ml. The protocol: as §1

For a further assay, the target named is T3, rhMER-ECD (human, UniProt Q12866 21-505).
T3 construct: extracellular domain
T3 sequence (looked up): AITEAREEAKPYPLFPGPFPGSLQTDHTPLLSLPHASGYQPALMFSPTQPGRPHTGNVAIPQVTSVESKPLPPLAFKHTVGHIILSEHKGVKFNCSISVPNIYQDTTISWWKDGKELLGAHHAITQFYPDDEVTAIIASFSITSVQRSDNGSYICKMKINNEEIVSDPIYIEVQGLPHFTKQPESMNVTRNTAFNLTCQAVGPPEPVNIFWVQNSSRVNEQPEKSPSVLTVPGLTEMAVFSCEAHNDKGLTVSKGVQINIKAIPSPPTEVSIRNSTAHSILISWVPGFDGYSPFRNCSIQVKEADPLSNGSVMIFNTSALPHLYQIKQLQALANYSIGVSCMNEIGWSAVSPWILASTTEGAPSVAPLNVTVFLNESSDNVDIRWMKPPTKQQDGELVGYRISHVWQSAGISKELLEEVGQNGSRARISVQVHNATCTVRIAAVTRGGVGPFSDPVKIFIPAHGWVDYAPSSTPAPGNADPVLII
The assay can be described thus: ELISA, antigen coated at 5 µg/ml, mAb 10 µg/ml. How it is done:
as §1

Assay [1] has as its target T4, recombinant human AXL extracellular domain, C-terminally His8-tagged (rhAXL-ECD) (human, UniProt P30530 26-451).
T4 construct: Made in CHO cells; also called (rh)AXL-ECD His8; human AXL ECD
T4 sequence: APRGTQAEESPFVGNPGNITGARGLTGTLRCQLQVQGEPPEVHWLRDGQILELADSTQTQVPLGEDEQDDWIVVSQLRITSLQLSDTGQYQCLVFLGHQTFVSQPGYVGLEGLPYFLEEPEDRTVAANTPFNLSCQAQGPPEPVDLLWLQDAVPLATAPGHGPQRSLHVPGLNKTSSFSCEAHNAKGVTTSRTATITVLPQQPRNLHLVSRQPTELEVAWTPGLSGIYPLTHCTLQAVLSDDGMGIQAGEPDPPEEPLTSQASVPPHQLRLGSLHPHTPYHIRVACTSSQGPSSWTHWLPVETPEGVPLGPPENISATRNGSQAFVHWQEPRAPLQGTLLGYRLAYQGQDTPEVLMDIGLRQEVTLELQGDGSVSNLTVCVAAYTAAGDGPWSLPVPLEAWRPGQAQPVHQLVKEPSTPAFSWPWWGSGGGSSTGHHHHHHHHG
Briefly: ELISA, antigen coated at 5 µg/ml, mAb 10 µg/ml. How it is done:
as §1

For assay [2], the target named is T5, AXL fragment # 9 (AXL amino acids 26-429, IgL1+IgL2+FN III-1+FN III-2).
T5 construct: not shown: Yeast display carrier and tags (Aga2p, HA, MYC and any linkers)
Briefly: yeast surface display of hAXL fragments (Aga2-HA-(hAXL)-MYC), whole yeast cell ELISA, signal normalised to anti-MYC. The source says: (§2) Epitope mapping. […] The YSD vector (pPNL6) was from The Pacific Northwest National Laboratory, USA.

Assay [3] has as its target T6, AXL fragment # 6 (AXL amino acids 26-226, IgL1+IgL2).
T6 chain: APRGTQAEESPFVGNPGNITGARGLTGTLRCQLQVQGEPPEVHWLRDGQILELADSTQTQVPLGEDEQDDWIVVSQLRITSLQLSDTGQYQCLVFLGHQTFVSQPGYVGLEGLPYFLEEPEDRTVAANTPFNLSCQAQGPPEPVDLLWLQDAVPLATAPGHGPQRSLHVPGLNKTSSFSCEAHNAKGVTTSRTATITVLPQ
The description is as above.
Excerpt: as §2

In assay [4] the target is T7, AXL fragment # 3 (AXL amino acids 26-138, IgL1).
T7 chain: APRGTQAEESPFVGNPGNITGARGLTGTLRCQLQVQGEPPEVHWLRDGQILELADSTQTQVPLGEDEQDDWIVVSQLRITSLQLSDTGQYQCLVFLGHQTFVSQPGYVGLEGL
Described as above.
Excerpt: as §2

T2 sequence (P02769 25-607 limits assumed): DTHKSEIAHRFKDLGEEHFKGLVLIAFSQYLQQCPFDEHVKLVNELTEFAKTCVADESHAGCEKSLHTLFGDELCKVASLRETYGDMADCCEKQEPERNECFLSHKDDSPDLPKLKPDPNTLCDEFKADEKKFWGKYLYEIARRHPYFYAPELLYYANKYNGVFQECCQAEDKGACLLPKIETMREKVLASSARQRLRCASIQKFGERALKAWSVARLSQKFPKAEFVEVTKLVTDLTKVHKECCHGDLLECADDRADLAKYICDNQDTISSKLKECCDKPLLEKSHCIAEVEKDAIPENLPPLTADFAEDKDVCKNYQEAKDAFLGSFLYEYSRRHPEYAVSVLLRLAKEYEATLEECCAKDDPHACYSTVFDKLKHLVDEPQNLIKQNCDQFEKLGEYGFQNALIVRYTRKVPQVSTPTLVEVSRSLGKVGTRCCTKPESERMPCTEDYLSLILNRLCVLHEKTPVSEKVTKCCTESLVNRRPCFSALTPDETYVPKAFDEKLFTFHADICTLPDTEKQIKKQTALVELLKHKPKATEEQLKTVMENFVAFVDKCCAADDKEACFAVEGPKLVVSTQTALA

B1: F111-5E9 (antibody, V domains shown)
VH: QIQLVQSGPELKKPGETVKISCKASGYTFTKYGMNWVKQAPGKGLKWMGWINTYTGEPTYADDFKGRFAFSLETSASTAYLQINNLTTEDMVTYFCAKGGYYSNPIYPMDYWGQGTSVTVSS
VL: DIQMTQTTSSLSASLGDRVTISCRASQDINNYLNWYQQKPDGTVKLLIYYISRLHSGVPSRFSGSGSGTDYSLTISNLELEDVATYFCQQGNTLPFTFGSGTKLEIK
notes: also called F111-5E9-2; mAb 5E9
For B1, the OD405 nm in the assay with rhTyro-3 was 0 OD405; with BSA, 0 OD405; with rhMER-ECD it was 0 OD405; in assay [1], 1.36 OD405. In addition, the binding result in assay [2] and in assay [3] was “binds” throughout.

B2: F107-10G1 (antibody, V domains shown)
VH: EVNLVESGGGVVKPGASLKLSCEASGFTFSNYGMSWVRQTSDKRLEWVASISGGGGRTYYLDNVKGRFIISRENAKNTLYLQMSSLKSEDTALFYCARGARASYFAMDYWGQGSSVTVSS
VL: VIVMTQSHKFMSTSVGDRVSITCKASQDVTTAVAWYQQKPGQSPKLLIYWASTRHTGVPDRFTGSGSGTDYSLTISNVQTEDLAFYYCQQHFTTPLTFGAGTKLELK
notes: also called F107-10G1-3
Consider B2, for which the OD405 nm is 0 OD405 with rhTyro-3, 0 OD405 with BSA, 0 OD405 in the assay with rhMER-ECD and 1.76 OD405 in assay [1]. For the same molecule, the binding result in assay [2], in assay [4] and in assay [3] was “binds” each time.

B3: F107-8D12 (antibody, V domains shown)
VH: QVQLQQPGAELVKPGASVQLSCKASGYTFISFWINWVKQRPGQGLEWMGNIFPGSSSTNYNEKFKSKATLTVDKSSSTAYMQLSSLTSEDSAVYFCARDYYGGSPDYWGQGTTLTVSS
VL: DIVMSQSPSSLAVSAGERVTMSCKSSQSLLNTRTRKNYLAWYQQKPGQSPKLLIYWASTRESGVPDRFTGSGSGTDFTLTISSVQAEDLAVYYCKQSYNLWTFGGGTKLEIK
notes: also called F107-8D12-2; mAb 8D12
On to B3, for which the OD405 nm was determined as 0 OD405 with rhTyro-3, 0 OD405 with BSA, 0 OD405 with rhMER-ECD and 2.59 OD405 in assay [1]. Further, the binding result in assay [2], in assay [4] and in assay [3] was “binds” in each case.

B4: F107-7H5 (antibody, V domains shown)
VH: QVQLQQPGAELVKPGASVKLSCKASGYTFTSYWINWVKQRPGQGLEWIGNIYPDSSSTNYNEKFKSKATLTVDKSSTTAYIQFSSLTSEDSAVYYCTRDTYGGSPDYWGQGTTLTVSS
VL: DIVMSQSPSSLAVSAGEKVTMSCKSSQSLLNSRTRKIYLAWYQQKPGQSPKLLIYWASTRQSGVPDRFTGSGSGTDFTLTISSVQAEDLAVYYCKQSYNLWTFGGGTKLEIK
notes: also called F107-7H5-2; mAb 7H5
Regarding B4, the OD405 nm with rhTyro-3 came out at 0 OD405; with BSA, 0 OD405; in the assay with rhMER-ECD, 0 OD405; in assay [1], 2.4 OD405. The binding result in assay [2], in assay [4] and in assay [3] was “binds” in each case.

B5: F111-3C8 (antibody, V domains shown)
VH: QVQLQQPGAELGKPGTSVKLSCKASGYTFTSYWMHWVKRVPGQGLEWIGNINPNSTSADYNEKFKRKATLTVDKSSSTAYMQLSTLTSEDSAVYYCTRPLMGPYWYFDVWGTGTTVTVSS
VL: QIVLTQSPAIMSASPGEKVTISCSASSSVSYMYWYQQKPGSSPKPWIYRTSNLASGVPARFSGSGSGTSYSLTISSMEAEDAATYYCQQYHNYPPTFGGGTKLEIK
notes: also called F111-3C8-2
In the case of B5, the OD405 nm came to 0 OD405 with rhTyro-3, 0 OD405 with BSA, 0 OD405 with rhMER-ECD and 2.3 OD405 in assay [1]. For the same molecule, the binding result in assay [2] and in assay [3] was “binds” throughout.
